Laboratory results taken from patent publication US20140087995A1 (published 2014).
Numbered stars: 1 amine (or outer) side, 2 acyl side, 3 side chain; on linkers, the order of the positions; unused ones are H or OH. Bridge positions count the residues as written; N and C are the ends. Side chains are listed from the residue outwards. Ends that are not written are not given here. * marks the point of attachment. C20 diacid = O=C(O)CCCCCCCCCCCCCCCCCCC(=O)*; γGlu = O=C(O)[C@H](CCC(=O)[*:2])N[*:1]; AEEA = NCCOCCOCC(=O)O

T1: human amylin 3(a) receptor (human calcitonin receptor co-expressed with RAMP-3) (human, UniProt P30988 25-474; O60896 24-148, limits assumed)
T1 sequence (looked up) 1: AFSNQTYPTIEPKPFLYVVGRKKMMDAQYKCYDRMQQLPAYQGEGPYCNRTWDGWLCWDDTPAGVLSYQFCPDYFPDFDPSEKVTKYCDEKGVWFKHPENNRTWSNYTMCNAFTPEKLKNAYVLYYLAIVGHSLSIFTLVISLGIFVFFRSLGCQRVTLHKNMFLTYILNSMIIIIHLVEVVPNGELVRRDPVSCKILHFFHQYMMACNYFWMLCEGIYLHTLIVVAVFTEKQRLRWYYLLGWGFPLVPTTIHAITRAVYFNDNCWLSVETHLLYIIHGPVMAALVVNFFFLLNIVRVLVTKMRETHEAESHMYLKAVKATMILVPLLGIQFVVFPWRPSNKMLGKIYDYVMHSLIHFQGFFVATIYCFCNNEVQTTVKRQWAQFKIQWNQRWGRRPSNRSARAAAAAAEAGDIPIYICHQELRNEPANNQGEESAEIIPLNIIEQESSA
T1 sequence (looked up) 2: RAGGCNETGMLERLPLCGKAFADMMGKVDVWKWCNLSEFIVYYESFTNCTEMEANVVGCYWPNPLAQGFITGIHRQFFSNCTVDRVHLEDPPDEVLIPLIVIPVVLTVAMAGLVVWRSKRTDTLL


The binders below were run against T1, human amylin 3(a) receptor (human …) (assay: cell-based or functional assay).

| Binder | Ratio hCT/hAmylin funct. |
| --- | --- |
| {C20 diacid-γGlu}-KCNTATCATQRLAEFLRHSSPNFGPILPPTNVGSNTP-NH2 (disulfide 2-7; SMILES CC[C@H](C)[C@H](NC(=O)[C@@H]1CCCN1C(=O)CNC(=O)[C@H](Cc1ccccc1)NC(=O)[C@H](CC(N)=O)NC(=O)[C@@H]1CCCN1C(=O)[C@H](CO)NC(=O)[C@H](CO)NC(=O)[C@H](Cc1c[nH]cn1)NC(=O)[C@H](CCCNC(=N)N)NC(=O)[C@H](CC(C)C)NC(=O)[C@H](Cc1ccccc1)NC(=O)[C@H](CCC(=O)O)NC(=O)[C@H](C)NC(=O)[C@H](CC(C)C)NC(=O)[C@H](CCCNC(=N)N)NC(=O)[C@H](CCC(N)=O)NC(=O)[C@@H](NC(=O)[C@H](C)NC(=O)[C@@H]1CSSC[C@H](NC(=O)[C@H](CCCCN)NC(=O)CC[C@H](NC(=O)CCCCCCCCCCCCCCCCCCC(=O)O)C(=O)O)C(=O)N[C@@H](CC(N)=O)C(=O)N[C@@H]([C@@H](C)O)C(=O)N[C@@H](C)C(=O)N[C@@H]([C@@H](C)O)C(=O)N1)[C@@H](C)O)C(=O)N[C@@H](CC(C)C)C(=O)N1CCC[C@H]1C(=O)N1CCC[C@H]1C(=O)N[C@H](C(=O)N[C@@H](CC(N)=O)C(=O)N[C@H](C(=O)NCC(=O)N[C@@H](CO)C(=O)N[C@@H](CC(N)=O)C(=O)N[C@H](C(=O)N1CCC[C@H]1C(N)=O)[C@@H](C)O)C(C)C)[C@@H](C)O, also called compound 4) | 1.2 |
| {C20 diacid-γGlu}-GRCNTATCATQRLAHFLRHSSPNFGAIPSSTNVGPNTY-NH2 (disulfide 3-8 (inferred)) | 2.9 |
| {C20 diacid-γGlu}-GRCNTATCATQRLAAFLRHSSPNFGAIPSSTNVGPNTY-NH2 (disulfide 3-8 (inferred)) | 2.1 |
| {C20 diacid-γGlu-AEEA-AEEA}-KCNTATCATQRLAEFLRHSSPNFGAIPSSTNVGSNTP-NH2 (disulfide 2-7 (inferred), also called compound 20) | 3.6 |
| {C20 diacid-γGlu}-KCNTATCATQRLAEFLRHSSPNFGAIPSSTNVGSNTP-NH2 (disulfide 2-7 (inferred), also called compound 8) | 1.1 |
| {C20 diacid-γGlu}-KCNTATCATQRLAEFLRHSSPNFGAIPSSTNVGSETY-NH2 (disulfide 2-7 (inferred), also called compound 22) | 3.8 |
| {C20 diacid-γGlu}-KCNTATCATQRLAEFLRHSSPNFGAIPSSTNVGSDTP-NH2 (disulfide 2-7 (inferred), also called compound 11) | 0.9 |
| {C20 diacid-γGlu}-KCNTATCATQRLADFLRHSSPNFGAIPSSTNVGSNTP-NH2 (disulfide 2-7; SMILES CC[C@H](C)[C@H](NC(=O)[C@H](C)NC(=O)CNC(=O)[C@H](Cc1ccccc1)NC(=O)[C@H](CC(N)=O)NC(=O)[C@@H]1CCCN1C(=O)[C@H](CO)NC(=O)[C@H](CO)NC(=O)[C@H](Cc1c[nH]cn1)NC(=O)[C@H](CCCNC(=N)N)NC(=O)[C@H](CC(C)C)NC(=O)[C@H](Cc1ccccc1)NC(=O)[C@H](CC(=O)O)NC(=O)[C@H](C)NC(=O)[C@H](CC(C)C)NC(=O)[C@H](CCCNC(=N)N)NC(=O)[C@H](CCC(N)=O)NC(=O)[C@@H](NC(=O)[C@H](C)NC(=O)[C@@H]1CSSC[C@H](NC(=O)[C@H](CCCCN)NC(=O)CC[C@H](NC(=O)CCCCCCCCCCCCCCCCCCC(=O)O)C(=O)O)C(=O)N[C@@H](CC(N)=O)C(=O)N[C@@H]([C@@H](C)O)C(=O)N[C@@H](C)C(=O)N[C@@H]([C@@H](C)O)C(=O)N1)[C@@H](C)O)C(=O)N1CCC[C@H]1C(=O)N[C@@H](CO)C(=O)N[C@@H](CO)C(=O)N[C@H](C(=O)N[C@@H](CC(N)=O)C(=O)N[C@H](C(=O)NCC(=O)N[C@@H](CO)C(=O)N[C@@H](CC(N)=O)C(=O)N[C@H](C(=O)N1CCC[C@H]1C(N)=O)[C@@H](C)O)C(C)C)[C@@H](C)O, also called compound 10) | 1 |
| {C20 diacid-γGlu}-KCNTATCATQRLAEFLRHSSPNFGAPLSSTNVGSNTP-NH2 (disulfide 2-7 (inferred), also called compound 5) | 1 |
| K([γGlu-C20 diacid])CNTATCATQRLAEFLRHSSPNFGAIPSSTNVGPNTP-NH2 (disulfide 2-7 (inferred)) | 0.9 |

Results, then the binder that gave them:

| Ratio hCT/hAmylin funct. | Binder |
| --- | --- |
| 2.2 | K([γGlu-γGlu-C20 diacid])CNTATCATQRLAEFLRHSSPNFGAIPSSTNVGSNTP-NH2 (disulfide 2-7 (inferred), also called compound 13) |
| 1.8 | K([γGlu-C20 diacid])CNTATCATQRLAEFLRHSSPNFGAIPSSTNVGSNTP-NH2 (disulfide 2-7 (inferred), also called compound 12) |
| 2.2 | {C20 diacid-γGlu}-KCNTATCATQRLAEFLRHSSPNFGAILPSTNVGSETY-NH2 (disulfide 2-7 (inferred), also called compound 33) |
| 0.8 | K([γGlu-C20 diacid])CNTATCATQRLAHFLRHSSPNFGAIPSSTNVGPNTP-NH2 (disulfide 2-7 (inferred)) |
| 1.6 | {C20 diacid-γGlu-γGlu}-KCNTATCATQRLAEFLRHSSPNFGAIPSSTNVGSNTP-NH2 (disulfide 2-7 (inferred), also called compound 14) |
